Data reported in PMC9186069 (2022).

Molecular target: T1, active C1r (human, UniProt P00736)
T1 chain 1: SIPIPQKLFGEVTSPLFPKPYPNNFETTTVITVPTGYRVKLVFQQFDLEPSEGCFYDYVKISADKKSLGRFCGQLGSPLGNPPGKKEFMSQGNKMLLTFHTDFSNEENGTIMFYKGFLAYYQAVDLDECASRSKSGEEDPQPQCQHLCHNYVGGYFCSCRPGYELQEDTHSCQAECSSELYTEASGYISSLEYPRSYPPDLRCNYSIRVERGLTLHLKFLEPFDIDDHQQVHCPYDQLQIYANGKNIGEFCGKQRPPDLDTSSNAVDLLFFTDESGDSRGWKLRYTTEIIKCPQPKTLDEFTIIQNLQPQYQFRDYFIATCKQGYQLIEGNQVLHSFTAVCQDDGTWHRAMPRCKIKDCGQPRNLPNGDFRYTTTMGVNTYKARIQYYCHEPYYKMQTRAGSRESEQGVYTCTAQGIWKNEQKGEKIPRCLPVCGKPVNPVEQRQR
T1 chain 2: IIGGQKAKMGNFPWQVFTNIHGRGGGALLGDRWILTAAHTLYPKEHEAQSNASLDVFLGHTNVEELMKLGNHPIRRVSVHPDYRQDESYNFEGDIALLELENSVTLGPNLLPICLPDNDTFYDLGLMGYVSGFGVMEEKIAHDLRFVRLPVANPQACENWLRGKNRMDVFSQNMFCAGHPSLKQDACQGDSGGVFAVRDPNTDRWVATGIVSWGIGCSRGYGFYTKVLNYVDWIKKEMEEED
Assay: SPR

B1: FbpB-Δ5C (domain or fragment)
chain: GSTGSETRLDNQYKFNLNKTTNSVEQALKIAQQIKDDLDTIEFHRIKLSNHYGIRAEEHEKQTAKEELSKFSKDKLEADLKKLLCEIEKSLNAATILTTHNEYHYGGNLQSDLSAKTTLDTLKTEVSSLISKIQNSNNKDHQAYPTSYYNDYQSYQALRNPYSKLTLVK
modifications: activated two-chain form, cleaved between 463 and 464 (cleavage limits from UniProt chain features), heavy and light chains disulfide-linked; plasma-purified glycoprotein; native C1r forms a Ca-dependent-complex homodimer, but the paper does not state stoichiometry
- Kd: 2.1 nM
